According to article PMC5125011, “Soluble Siglec-5 associates to PSGL-1 and displays anti-inflammatory activity” (Scientific Reports, 2016):

T1: human soluble recombinant PSGL1 fused to human Fc (human, UniProt Q14242 18-320)
T1 construct: P-selectin glycoprotein ligand-1 (PSGL1), human, soluble ectodomain; Sialylated glycoprotein; also called sPSGL1/Fc; soluble PSGL1/Fc; source: bought: R&D Systems (cat# 3345-PS)
T1 sequence (looked up): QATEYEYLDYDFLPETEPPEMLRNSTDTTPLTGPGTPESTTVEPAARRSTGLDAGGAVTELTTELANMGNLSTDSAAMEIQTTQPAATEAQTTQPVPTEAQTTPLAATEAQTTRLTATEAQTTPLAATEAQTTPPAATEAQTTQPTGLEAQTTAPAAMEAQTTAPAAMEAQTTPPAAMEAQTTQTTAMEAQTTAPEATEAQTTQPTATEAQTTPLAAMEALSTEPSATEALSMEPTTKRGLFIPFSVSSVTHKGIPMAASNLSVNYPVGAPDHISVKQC


Key:
[1] = target: the molecule itself; assay: SDS-PAGE under non-reduced and reduced conditions; purified sSiglec-5/C4BP, Coomassie-staining; about 525 kDa non-reduced, 75 kDa reduced; heptamer to single chains
[2] = target: T1, human soluble recombinant PSGL1 fused …; assay: ELISA; sPSGL1/Fc (0.25 μg/well) adsorbed to microtiter wells; Tris-buffered saline with 2.5 mM CaCl2, 0.1% Tween-20, 3% BSA; bound sSiglec-5 probed with biotin-labeled polyclonal anti-Siglec-5 antibodies, bound P-selectin with a monoclonal anti-P-selectin antibody; controls with EDTA (5 mM) or polyclonal anti-Siglec-5 antibodies (6 μM) inhibited binding; conditions: both partners purified

EC50 [2] [nM] | Binder | stoichiometry N [1]
8 ± 1 | heptameric Siglec-5/C4BP fusion protein (other, UniProt O15389 17-434, looked up, Siglec-5 ectodomain, residues 17-434; also called sSiglec-5/C4BP; sSg-5/C4BP) EKPVYELQVQKSVTVQEGLCVLVPCSFSYPWRSWYSSPPLYVYWFRDGEIPYYAEVVATNNPDRRVKPETQGRFRLLGDVQKKNCSLSIGDARMEDTGSYFFRVERGRDVKYSYQQNKLNLEVTALIEKPDIHFLEPLESGRPTRLSCSLPGSCEAGPPLTFSWTGNALSPLDPETTRSSELTLTPRPEDHGTNLTCQMKRQGAQVTTERTVQLNVSYAPQTITIFRNGIALEILQNTSYLPVLEGQALRLLCDAPSNPPAHLSWFQGSPALNATPISNTGILELRRVRSAEEGGFTCRAQHPLGFLQIFLNLSVYSLPQLLGPSCSWEAEGLHCRCSFRARPAPSLCWRLEEKPLEGNSSQGSFKVNSSSAGPWANSSLILHGGLSSDLKVSCKAWNIYGSQSGSVLLLQGRSNLGTETPEGCEQVLTGKRLMQCLPNPEDVKMALEVYKLSLEIEQLELQRDSARQSTLDKEL | 7
49 ± 11 | Recombinant soluble Siglec-5 fused to human Fc (Fc fusion, UniProt O15389 17-441, looked up, Siglec-5, soluble; also called sSiglec-5/Fc; sSg-5/Fc; source: bought: R&D Systems (cat# 1072-SL), produced in mouse myeloma cell-line NS0) EKPVYELQVQKSVTVQEGLCVLVPCSFSYPWRSWYSSPPLYVYWFRDGEIPYYAEVVATNNPDRRVKPETQGRFRLLGDVQKKNCSLSIGDARMEDTGSYFFRVERGRDVKYSYQQNKLNLEVTALIEKPDIHFLEPLESGRPTRLSCSLPGSCEAGPPLTFSWTGNALSPLDPETTRSSELTLTPRPEDHGTNLTCQMKRQGAQVTTERTVQLNVSYAPQTITIFRNGIALEILQNTSYLPVLEGQALRLLCDAPSNPPAHLSWFQGSPALNATPISNTGILELRRVRSAEEGGFTCRAQHPLGFLQIFLNLSVYSLPQLLGPSCSWEAEGLHCRCSFRARPAPSLCWRLEEKPLEGNSSQGSFKVNSSSAGPWANSSLILHGGLSSDLKVSCKAWNIYGSQSGSVLLLQGRSNLGTGVVPAAL | –
